“Also recorded” adds a separate entry of the source. Read-outs that look alike come from different tables or passages of the source. Peptide text beside a SMILES is read from it.
What was measured:
[1] = tested on: SK-MES-1 cells; assay: Saturation binding assay on SK-MES-1 cells; parameters: species or system human
Protocol: The affinities of (^99mTc) Tc-HYNIC-peptides were determined utilizing a saturation binding experiment with cultivated cells in vitro for determination of the dissociation constant as KD and the number of binding sites per cell (Bmax). SK-MES-1 cells were incubated for 2 hr at 37 °C with increasing concentrations of (^99mTc) Tc- HYNIC- peptides (0.1, 0.5, 1, 2.5, 5, 25, and 50 nM). One dish served as a blocking sample, and it was immersed in a blocking solution containing a 500-fold excess of the non-labeled peptide. For each concentration, three dishes were utilized. Following incubation, the media was withdrawn, and the cells were trypsinized and collected for Gamma counter activity measurement. Prism 5 software (Ver. 5.0) was used to examine the particular binding data using nonlinear regression.

[2] = Biodistribution in normal mice; format: in vivo; conditions: i.v. 1 μg in 100 μl (18.5 MBq), mean±SD, n=4; for Intestine uptake (with contents): normal female NMRI mice
Protocol: All animal investigations were approved by Mazandaran University of Medical Sciences Research and Ethical Committee in Sari, Iran. Twelve normal female NMRI mice (20–30 g) were randomly divided into three groups of four. 1 μg of (^99mTc) Tc –HYNIC–J18 peptide in 100 μl of buffer (18.5 MBq) was injected into the tail vein. All animals were sacrificed one, four, and twenty-four hours following radiolabeled peptide injection. Mice were euthanized with an appropriate dose of ketamine/xylazine (Sigma, USA) diluted with sterile water (1:3 v/v). Following deep anesthesia, blood was extracted by heart puncture with a 1-mL syringe washed with diluted heparin. Blood, liver, spleen, salivary gland, stomach, kidney, muscle, and bone samples were dissected and weighed, and radioactivity was measured. Except for the intestines, which were computed as a percentage of the injected dose per gram tissue (percent ID/g), the tissue uptake data was calculated as a percentage of the administered dose per total sample.

[3] = Biodistribution in SK-MES-1 xenografted nude mice; format: in vivo, female C57 nu/nu mice; conditions: female, C57 nu/nu, mouse, in vivo, iv, total radioactivity, SK-MES-1 xenograft nude mice, n=4; for tissue uptake at 1 h / tissue uptake at 2 h / tissue uptake at 4 h: mean ± SD
Protocol: (§1) The tumor biodistribution and targeting properties of the radiolabeled peptides were carried out in female C57 nu/nu mice bearing SK-MES-1 (Pasture Institute, North Branch and Amol, Iran). The tumor was grafted by subcutaneous injection of SK-MES-1 cells at a concentration of 4×10^6 cells/mouse into the right front flank of the mice and left to grow over a period of 20 days. The mice were ready for biodistribution when tumor size reached 0.7–1 cm^3 in mean diameter, all mice received intravenous co-injections of (^99mTc) Tc-HYNIC-(Ser)3-J18 peptide 1 or (^99mTc )Tc-HYNIC-(Ser)3-J18 peptide 2 (1 μg in 100 μl buffer) after 1, 2, and 4 hr post-injection, respectively (n=4 mice per group). In order to measure the radiopeptides’ nonspecific uptake of the radiopeptides, one group of four animals was injected with 300 μg of non-labeled peptide in a 50 μl buffer. The mice in the blocking group were euthanized 2 hr after the injection. Mice organ and tissue samples were collected, and radioactivity uptake was calculated as a percentage of the administered dose per gram tissue (%ID/g).

[4] = tested on: SK-MES-1 tumors; assay: Biodistribution in SK-MES-1 xenografted nude mice; format: in vivo, female C57 nu/nu mice; conditions: SK-MES-1 xenograft nude mice, n=4; for Intestine uptake (with contents): mean ± SD
Protocol: as §1

[5] = tested on: A-549 cells; conditions: previously reported, listed as 99mTc-HYNIC-(Ser)3-J18 (Tricine); cited from earlier work
Text: Table 1 Overview of affinity binding ^99mTc-HYNIC-(Ser)3-J18 on SK-MES-1 vs A-549 cell line | column: A-549 / Tricine; A-549 / tricine/EDDA

[6] = 1 ug, i.v. 1 μg in 100 μl, read-out: Muscle uptake
[7] = 1 ug, i.v. 1 μg in 100 μl, read-out: Spleen uptake
[8] = 1 ug, i.v. 1 μg in 100 μl, read-out: Tumor uptake
[9] = 1 ug, read-out: Tumor/blood ratio
[10] = 1 ug, read-out: Tumor/bone ratio
[11] = 1 ug, read-out: Tumor/liver ratio
[12] = 1 ug, read-out: Tumor/muscle ratio

## CC(C)C[C@H](NC(=O)[C@H](CO)NC(=O)[C@H](CCCNC(=N)N)NC(=O)[C@H](CO)NC(=O)[C@H](CO)NC(=O)[C@H](CO)NC(=O)c1ccc(NN)nc1)C(=O)N[C@@H](Cc1c[nH]c2ccccc12)C(=O)N[C@@H](CO)C(=O)N[C@@H](CC(=O)O)C(=O)N[C@@H](Cc1ccccc1)C(=O)N[C@@H](Cc1ccc(O)cc1)C(=O)N[C@@H](C)C(=O)N[C@@H](CO)C(=O)N[C@@H](C)C(=O)N[C@@H](CO)C(=O)N[C@@H](CCCNC(=N)N)C(=O)NCC(=O)N1CCC[C@H]1C(=O)O [Peptide 1, (^99mTc)Tc-HYNIC-(Ser)3-J18 with tricine, metal not drawn] (HELM PEPTIDE1{[NNc1ccc(C(=O)[*:2])cn1].S.S.S.R.S.L.W.S.D.F.Y.A.S.A.S.R.G.P}$$$$V2.0; C-terminus assumed)
[1]; Figure 4, saturation binding, 2 hr at 37 °C, listed as 99mTc-(tricine)-HYNIC-(Ser)3-J18
  Bmax: (2.2±0.2)·10^4 binding sites/cell
[1]; listed as 99mTc-peptide 1
  binding affinity for SK-MES-1, in words: high binding affinity; also recorded: good receptor-binding affinity
[1]; saturation binding, 0.1-50 nM, 2 hr at 37 °C, blocking with 500-fold excess non-labeled peptide, three dishes per concentration, Prism 5 nonlinear regression, listed as 99mTc-HYNIC-(Ser)3-J18 (Tricine)
  Kd: 3.1 ± 0.3 nM
[1]; saturation binding, 0.1-50 nM, 2 hr at 37 °C, three dishes per concentration, Prism 5 nonlinear regression, listed as 99mTc-HYNIC-(Ser)3-J18 (Tricine)
  Bmax: (2.2± 0.2)×10 ^4 binding sites/cell
[2]; 4 hr
  Intestine uptake (with contents): 5.85±2.14 percentage of injected dose per whole sample
[2]; 24 hr
  Intestine uptake (with contents): 1.11±0.38 percentage of injected dose per whole sample
[2]; female, NMRI, mouse, spleen, iv, 1 ug, total radioactivity, 4 hr
  tissue uptake at 4 h: 2.24 ± 1.81 %ID/g
[3]; 1 ug, i.v. 1 μg in 100 μl, read-out: Blood uptake
  tissue uptake at 1 h: 0.18 ± 0.09 %ID/g
[3]; [6]
  tissue uptake at 1 h: 0.19 ± 0.05 %ID/g
  tissue uptake at 4 h: 0.04 ± 0.01 %ID/g
[3]; [7]
  tissue uptake at 1 h: 0.25 ± 0.07 %ID/g
  tissue uptake at 4 h: 0.03 ± 0.01 %ID/g
[3]; 1 ug, i.v. 1 μg in 100 μl, read-out: Stomach uptake
  tissue uptake at 1 h: 0.38 ± 0.09 %ID/g
[3]; [8]
  tissue uptake at 1 h: 0.97 ± 0.03 %ID/g
  tissue uptake at 4 h: 0.2 ± 0.09 %ID/g
[3]; [9]
  tissue to tissue ratio at 1 h: 5.36
  tissue to tissue ratio at 4 h: 3.81
[3]; [10]
  tissue to tissue ratio at 1 h: 7.46
  tissue to tissue ratio at 4 h: 20
[3]; [11]
  tissue to tissue ratio at 1 h: 3.59
  tissue to tissue ratio at 4 h: 2.85
[3]; [12]
  tissue to tissue ratio at 1 h: 5.1
  tissue to tissue ratio at 4 h: 5
[3]; 1 ug, 2 hr, i.v. 1 μg in 100 μl, read-out: Heart uptake
  tissue uptake at 2 h: 0.12 ± 0.04 %ID/g
[3]; 1 ug, 2 hr, i.v. 1 μg in 100 μl, read-out: Liver uptake
  tissue uptake at 2 h: 0.2 ± 0.09 %ID/g
[3]; 1 ug, 2 hr, i.v. 1 μg in 100 μl, read-out: SG&T (salivary glands and thyroid) uptake
  tissue uptake at 2 h: 0.13 ± 0.05 %ID/g
[3]; 1 ug, 2 hr, i.v. 1 μg in 100 μl, read-out: Spleen uptake
  tissue uptake at 2 h: 0.15 ± 0.04 %ID/g
[3]; 1 ug, 2 hr, i.v. 1 μg in 100 μl, read-out: Stomach uptake
  tissue uptake at 2 h: 0.25 ± 0.03 %ID/g
[3]; 1 ug, 2 hr, i.v. 1 μg in 100 μl, read-out: Tumor uptake
  tissue uptake at 2 h: 0.5 ± 0.03 %ID/g
[3]; 1 ug, 2 hr, read-out: Tumor/liver ratio
  tissue to tissue ratio at 2 h: 2.5
[3]; 1 ug, 2 hr, read-out: Tumor/muscle ratio
  tissue to tissue ratio at 2 h: 6.16
[3]; 1 ug, i.v. 1 μg in 100 μl, read-out: Bone uptake
  tissue uptake at 4 h: 0.01 %ID/g
[3]; 1 ug, i.v. 1 μg in 100 μl, read-out: Heart uptake
  tissue uptake at 4 h: 0.07 ± 0.01 %ID/g
[3]; 1 ug, i.v. 1 μg in 100 μl, read-out: Kidney uptake
  tissue uptake at 4 h: 0.27 ± 0.03 %ID/g
[3]; 1 ug, i.v. 1 μg in 100 μl, read-out: Liver uptake
  tissue uptake at 4 h: 0.07 ± 0.02 %ID/g
[3]; 1 ug, i.v. 1 μg in 100 μl, read-out: Lung uptake
  tissue uptake at 4 h: 0.04 ± 0.01 %ID/g
[3]; 1 ug, i.v. 1 μg in 100 μl, read-out: SG&T (salivary glands and thyroid) uptake
  tissue uptake at 4 h: 0.03 ± 0.02 %ID/g
[3]; 1 ug, read-out: Tumor/kidney ratio
  tissue to tissue ratio at 4 h: 0.74
[3]; 2h-blocked (300 μg non-labeled peptide 0.5 hr before), i.v. 1 μg, read-out: Blood uptake
  tissue uptake at 2 h: 0.36 ± 0.02 %ID/g
[3]; 2h-blocked (300 μg non-labeled peptide 0.5 hr before), i.v. 1 μg, read-out: Heart uptake
  tissue uptake at 2 h: 0.18 ± 0.03 %ID/g
[3]; 2h-blocked (300 μg non-labeled peptide 0.5 hr before), i.v. 1 μg, read-out: Kidney uptake
  tissue uptake at 2 h: 3.2 ± 0.02 %ID/g
[3]; 2h-blocked (300 μg non-labeled peptide 0.5 hr before), i.v. 1 μg, read-out: Liver uptake
  tissue uptake at 2 h: 0.23 ± 0.04 %ID/g
[3]; 2h-blocked (300 μg non-labeled peptide 0.5 hr before), i.v. 1 μg, read-out: Muscle uptake
  tissue uptake at 2 h: 0.23 ± 0.03 %ID/g
[3]; 2h-blocked (300 μg non-labeled peptide 0.5 hr before), i.v. 1 μg, read-out: SG&T (salivary glands and thyroid) uptake
  tissue uptake at 2 h: 0.17 ± 0.02 %ID/g
[3]; 2h-blocked (300 μg non-labeled peptide 0.5 hr before), i.v. 1 μg, read-out: Spleen uptake
  tissue uptake at 2 h: 0.2 ± 0.01 %ID/g
[3]; 2h-blocked (300 μg non-labeled peptide 0.5 hr before), i.v. 1 μg, read-out: Stomach uptake
  tissue uptake at 2 h: 0.3 ± 0.02 %ID/g
[3]; 2h-blocked (300 μg non-labeled peptide), read-out: Tumor/blood ratio
  tissue to tissue ratio at 2 h: 0.8
[3]; 2h-blocked (300 μg non-labeled peptide), read-out: Tumor/liver ratio
  tissue to tissue ratio at 2 h: 1.26
[3]; 2h-blocked (300 μg non-labeled peptide), read-out: Tumor/muscle ratio
  tissue to tissue ratio at 2 h: 1.26
[4]; 1 hr, i.v. 1 μg in 100 μl
  Intestine uptake (with contents): 0.73±0.06 percentage of injected dose per whole sample
[4]; 1 hr, listed as 99mTc-peptide 1
  Tumor/muscle ratio: 5.1
[4]; 2h-blocked (300 μg non-labeled peptide 0.5 hr before), i.v. 1 μg
  Intestine uptake (with contents): 0.24 ±0.09 percentage of injected dose per whole sample
[4]; 2 hr, i.v. 1 μg in 100 μl
  Intestine uptake (with contents): 0.59±0.02 percentage of injected dose per whole sample
[4]; 4 hr, i.v. 1 μg in 100 μl
  Intestine uptake (with contents): 0.04±0.01 percentage of injected dose per whole sample
[5]
  Kd: 4.1 ± 1.3 nM

From paper PMC8751750, “Effect of using different co-ligands during ^99mTc-labeling of J18 peptide on SK-MES-1 cell binding and tumor targeting” (Iranian Journal of Basic Medical Sciences, 2021)
